Results on 1 molecule are retold here after patent US20260055369A1, “METHOD FOR GENERATING CELLS OF THE T CELL LINEAGE WITH ENGINEERING BROADLY REACTIVE HUMAN NOTCH LIGAND” (H. Lee Moffitt Cancer Center and Research Institute, Inc., priority 2022, published 2026).

Assay [1] deals with Notch1. Kind of assay: Notch activation with streptavidin-coated polystyrene beads (CHO-K1 N1-Gal4). It is filed as cell-based. Conditions: 25 μm beads, ratio 1:1 with reporter cells. The method, then: Biotinylated WT DLL4 or Delta^MAX (26 μg) were coated in 1.33 mg of streptavidin-coated polystyrene beads for 1 hour at 4° C. in DPBS+0.1% BSA. The beads were washed three times with 500 μL of DPBS+0.1% BSA before and after coating. DLL4 pre-coated beads were counted in the microscope and 100 μL containing 30,000 beads combined in ratio 1:1 with 100 μL of α-MEM with CHO-K1 N1-Gal4 reporter cell lines in 96-well tissue culture plates. The plate was incubated for 24 hours at 37° C., 5% CO2, and Notch activation measure by flow cytometry. The data represent Notch activation as a function of mean fluorescent intensity±s.d. of three biological replicates.
Target sequence in this assay (P46531 295-488 limits assumed): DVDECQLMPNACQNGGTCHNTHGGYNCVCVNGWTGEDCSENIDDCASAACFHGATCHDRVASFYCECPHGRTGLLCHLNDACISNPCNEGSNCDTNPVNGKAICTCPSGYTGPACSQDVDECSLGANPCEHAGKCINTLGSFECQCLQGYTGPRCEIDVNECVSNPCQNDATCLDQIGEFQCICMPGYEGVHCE

For a further assay, the system named is hNotch1. Description: Notch signaling assay using multiple ligand-presentation formats (U2OS hNotch1-Gal4 luciferase). It is filed as cell-based, human. How it is done: Notch activation was assayed in different formats (FIG. 14A) including (1) non-specific orientation (0.1 ng/mm^2 of Delta^MAX on well, FIG. 3A), (2) ligand-oriented coupling (10 nM of Delta^MAX on well, FIG. 3B), (3) magnetic beads coated with biotinylated Delta^MAX (ratio 1:20 reporter cells:beads, optimization of ratio is detailed in FIG. 14D), (4) HEK293T-expressing Delta^MAX (ratio 1:1, signal receivers:senders, optimization of ratio can be seen in FIG. 14C), and (5) yeast-expressing Delta^MAX (ratio 1:10, reporter:yeast, optimization of ratio is detailed in FIG. 14B). On day one, U2OS hNotch1-Gal4 cells were detached with trypsin-EDTA, counted in the microscope, and 5×10E5 cells/well transferred to 6-well tissue culture plates (Falcon). On day two, U2OS cells were transfected as described above. On day three, the different activation assays were set up at the same time. For ligand oriented-coupling, streptavidin plates were coated with 10 nM of Delta^MAX as described above. For non-specific adsorption, non-biotinylated Delta^MAX at 0.1 ng/mm was coated as described previously. For activation using streptavidin beads coated with biotinylated Delta^MAX, 200 mg of streptavidin beads (streptavidin MagneSphere paramagnetic particles, Promega) were washed 3 times with 200 μL of DPBS+0.1% BSA using a magnet (Miltenyi), and combined with 20 μg of biotinylated Delta^MAX for 1.5 hours at 4° C. Next, unbound Delta^MAX was washed out three times with 200 μL of DPBS+0.1% BSA, and 100 μL of complexed beads (pre-diluted 1/25 in DPBS) were added to wells. For co-culture activation with HEK293T-expressing Delta^MAX, cells were detached with trypsin-EDTA, quenched with DMEM media, washed with DPBS, and 100 μL containing 20,000 cells in DMEM were added to wells. For activation with yeast cells expressing Delta^MAX on surface, pYAL vector encoding for Delta^MAX (N-EGF5) was electroporated previously into yeast cells, and DLL4 expressed in SGCAA as previously described. Delta^MAX expression was induced 48 hours before Notch activation assay set up. One hundred microliters of yeast cells (2×10E6 cells/mL) in serum-free DMEM were added to the assay plate. Once all the wells contained the desired activation assays, U2OS reporter cells were detached with trypsin-EDTA, and 20,000 cells in 100 μL of DMEM were added per well. All the conditions were supplemented with 2 μg/mL of doxycycline to induce Notch1-Gal4 expression. The assay plate was incubated for 24 hours at 37° C. and 5% CO2. On day four, media was aspirated off and Luciferase Dual-Glo kit (Promega) used to detect firefly and Renilla signals in a luminometer (GloMax, Promega). Negative controls were BSA 0.5% for non-specific adsorption, streptavidin and BSA 2% for ligand oriented-coupling, uncoated streptavidin beads for activation with magnetic beads, HEK293T non-expressing DLL4 for co-culture activation, and yeast expressing PDL-1 ECD for co-culture with yeast. The expression of Delta^MAX in HEK293T and yeast cells was confirmed by flow cytometry (BD Accuri C6 plus) following staining for 1 hour at 4° C. with anti-hDLL4 PE antibody using DPBS+0.5% BSA, and selection buffer, respectively (FIG. 14E). Notch activation is represented as the mean fold-change over the corresponding control±s.d. of three independent biological replicates.

The subject of assay [2] is Notch1. Kind of assay: Notch inhibition assay in co-culture format (CHO-K1 N1-Gal4 with HEK293T expressing WT DLL4). Conditions: co-culture 1:1 with HEK293T expressing WT DLL4; read-out: IC50 for inhibition of Notch1 activation by cellular DLL4. It is filed as cell-based. How it is done:
For inhibition of CHO-K1 N1-Gal4 cells with DAPT and Delta^MAX, the experiment was set-up following the protocol described above with the exception that CHO-K1 N1-Gal4 reporters were incubated with HEK293T-expressing WT DLL4 for Notch activation. Three-fold serial dilutions of soluble Delta^MAX and DAPT were prepared in DPBS starting at 6,000 nM. For DAPT, a stock solution of 100 μM in 8% DMSO was prepared before serial dilutions in DPBS. Appropriate DMSO controls were also assayed for cytotoxicity. Final DMSO concentration in the wells was maintained below 1%. Thirty thousand signal senders and pre-blocked signal receivers (100 μL each) were incubated for 24 hours at 37° C. and 5% CO2 before analysis by flow cytometry. Maximum Notch activation (100%) was set in the absence of soluble inhibitors and normalized to wells containing CHO-K1 N1-Gal4 cells and HEK293T lacking expression of WT DLL4. Mean fluorescence intensity is represented as percentage relative to Notch activation in the absence of inhibitors±s.d. of three independent biological replicates.

hNotch1, sequence (P46531 19-1664 limits assumed): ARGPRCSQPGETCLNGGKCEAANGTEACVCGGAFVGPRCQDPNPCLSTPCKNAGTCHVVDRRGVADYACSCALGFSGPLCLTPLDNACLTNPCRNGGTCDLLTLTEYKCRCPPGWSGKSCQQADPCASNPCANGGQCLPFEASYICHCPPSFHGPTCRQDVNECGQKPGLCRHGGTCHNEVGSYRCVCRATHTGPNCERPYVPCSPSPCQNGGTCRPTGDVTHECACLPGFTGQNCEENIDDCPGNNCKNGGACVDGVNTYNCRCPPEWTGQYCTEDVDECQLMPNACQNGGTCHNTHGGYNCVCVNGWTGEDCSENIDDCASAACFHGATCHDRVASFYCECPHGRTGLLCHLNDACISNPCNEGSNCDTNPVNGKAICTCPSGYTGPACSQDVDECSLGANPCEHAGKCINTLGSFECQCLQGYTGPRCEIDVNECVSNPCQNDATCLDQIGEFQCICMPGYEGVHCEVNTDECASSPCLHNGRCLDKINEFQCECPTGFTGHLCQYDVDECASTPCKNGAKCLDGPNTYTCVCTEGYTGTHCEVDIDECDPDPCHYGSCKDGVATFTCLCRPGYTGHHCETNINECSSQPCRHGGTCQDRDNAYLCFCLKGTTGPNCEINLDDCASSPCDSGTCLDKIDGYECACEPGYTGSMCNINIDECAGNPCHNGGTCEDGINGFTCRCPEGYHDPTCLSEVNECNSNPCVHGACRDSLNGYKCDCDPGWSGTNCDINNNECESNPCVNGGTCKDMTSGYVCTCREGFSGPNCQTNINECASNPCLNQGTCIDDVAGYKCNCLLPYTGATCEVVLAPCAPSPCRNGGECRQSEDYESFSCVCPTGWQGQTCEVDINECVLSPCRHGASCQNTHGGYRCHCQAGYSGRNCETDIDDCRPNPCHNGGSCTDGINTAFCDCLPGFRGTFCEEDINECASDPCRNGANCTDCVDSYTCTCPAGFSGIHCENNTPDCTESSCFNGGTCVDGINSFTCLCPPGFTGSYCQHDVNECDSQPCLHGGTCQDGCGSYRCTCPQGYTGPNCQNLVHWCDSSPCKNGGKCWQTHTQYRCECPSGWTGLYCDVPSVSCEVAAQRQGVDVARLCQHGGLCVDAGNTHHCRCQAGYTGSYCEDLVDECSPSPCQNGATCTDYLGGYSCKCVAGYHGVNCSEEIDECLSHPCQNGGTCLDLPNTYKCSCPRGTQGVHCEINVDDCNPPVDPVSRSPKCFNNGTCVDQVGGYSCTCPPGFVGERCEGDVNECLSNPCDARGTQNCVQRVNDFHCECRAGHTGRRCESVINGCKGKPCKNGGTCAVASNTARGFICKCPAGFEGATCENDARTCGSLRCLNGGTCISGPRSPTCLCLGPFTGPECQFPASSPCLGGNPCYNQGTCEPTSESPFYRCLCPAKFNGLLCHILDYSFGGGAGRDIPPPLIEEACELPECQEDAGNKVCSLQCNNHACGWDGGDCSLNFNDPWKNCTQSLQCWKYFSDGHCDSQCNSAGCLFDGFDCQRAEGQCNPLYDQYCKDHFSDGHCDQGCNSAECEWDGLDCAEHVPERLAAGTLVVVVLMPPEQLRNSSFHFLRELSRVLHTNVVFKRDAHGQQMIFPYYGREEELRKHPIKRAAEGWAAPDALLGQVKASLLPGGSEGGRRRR
hNotch1, sequence (P46531 1665-1756 limits assumed): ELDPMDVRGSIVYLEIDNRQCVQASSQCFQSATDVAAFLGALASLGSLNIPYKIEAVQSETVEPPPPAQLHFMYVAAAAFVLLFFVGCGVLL

B1: Delta^MAX: engineered human DLL4 consensus variant with 10 mutations combining DLL4.v1 and DLL4.v2 mutations; sequence matches SEQ ID NO: 4/10 (protein)
chain: SSVFQLQLQEFINERGVLASGRPCEPGCRTFFRVCLKHFQAVVSPGPCTFGTVSTPVLGTNSFAVRDDSSGGGRNPLQLPLNFTWPGTFSLIIEAWHAPGDDLRPEALPPDALISKFAIQGSLAVGQNWLLDEQTSTLTRLRYSYRVICSDNYYGDNCSRLCKKRNDYFGHYVCQPDGNPSCLPGWTGEYCQQPICLSGCHEQNGYCSKPAECLCRPGWQGRLCNECIPHPGCRHGTCSTPWQCLCDEGWGGLYCDQDLNYCTHHSPCKNGATCRNSGPRSYTCTCRPGYTGVDCELELSECDSNPCRNGGSCKDQEDGYHCLCPPGYYGLHCEHSTLSCADSPCFNGGSCRERNQGANYACECPPNFTGSNCE
For B1, the “reporter activity vs DLL4 microbeads” value in the assay with Notch1 [1] turned out to be 4.5 fold. Further, the “increase in Notch1 activation relative to controls” value was determined as 15 fold with hNotch1 (co-culture with HEK293T expressing ligand, ratio 1:1); 21 fold in the assay on hNotch1 (ligand-coated streptavidin magnetic beads, ratio 1:20 reporter cells:beads); 23 fold in the assay on hNotch1 (non-specific adsorption, 0.1 ng/mm^2); 50 fold in the assay with hNotch1 (oriented coupling on streptavidin plates, 10 nM). Also, the “Notch1 activation relative to controls” value with hNotch1 (yeast-displayed, ratio 1:10 reporter:yeast) is “did not induce a significant change”. Also, the IC50 with Notch1 [2] stood at 400 nM.

As usually defined, the IC50 is the concentration that gives 50% inhibition.
